From patent US20260210971A1 (Pfizer, published 2026) come the findings set out here.

Changes are numbered by the printed parent chain. Where only a bound is given, the exact number is not on record here.

T1: recombinant soluble murine TL1A (mouse, UniProt Q5UBV8 75-252)
T1 construct: also called murine rsTL1A; mouse TL1A
T1 chain: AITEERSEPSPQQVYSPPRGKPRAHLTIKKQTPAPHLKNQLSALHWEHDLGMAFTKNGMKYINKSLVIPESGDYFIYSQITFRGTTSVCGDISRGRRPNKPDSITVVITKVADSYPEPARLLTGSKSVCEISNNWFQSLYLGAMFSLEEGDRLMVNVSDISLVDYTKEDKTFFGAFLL

T2: recombinant soluble cynomolgus monkey TL1A (cynomolgus monkey, UniProt O95150 72-251 (human entry))
T2 construct: also called cyno rsTL1A; cyno TL1A
T2 chain: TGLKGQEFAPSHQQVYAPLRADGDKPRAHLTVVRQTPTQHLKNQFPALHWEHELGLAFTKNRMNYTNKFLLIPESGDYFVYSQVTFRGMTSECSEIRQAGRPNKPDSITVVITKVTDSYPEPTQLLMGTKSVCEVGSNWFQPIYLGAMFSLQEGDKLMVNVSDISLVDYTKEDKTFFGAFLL

T3: recombinant soluble human TL1A (human, UniProt O95150 71-251)
T3 sequence: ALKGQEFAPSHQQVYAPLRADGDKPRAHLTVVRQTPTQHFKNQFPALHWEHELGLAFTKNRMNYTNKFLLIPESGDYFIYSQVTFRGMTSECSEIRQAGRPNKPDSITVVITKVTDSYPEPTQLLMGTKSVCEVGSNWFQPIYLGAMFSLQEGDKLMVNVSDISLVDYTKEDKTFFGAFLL

T4: recombinant soluble rat TL1A (rat, UniProt Q8K3Y7 76-252)
T4 construct: also called rat rsTL1A
T4 sequence: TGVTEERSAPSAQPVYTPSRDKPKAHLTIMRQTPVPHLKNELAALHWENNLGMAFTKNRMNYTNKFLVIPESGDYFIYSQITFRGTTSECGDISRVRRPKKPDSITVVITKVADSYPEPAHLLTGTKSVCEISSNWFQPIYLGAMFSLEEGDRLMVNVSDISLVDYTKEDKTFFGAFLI

B1: 1D1 1.28 (antibody, human IgG1, kappa, V domains shown)
VH: QVQLVQSGAEVKKPGASVKVSCKASGYDFTYYGISWVRQAPGQGLEWMGWISTYNGNKHYARMLQGRVTMTTDTSTRTAYMELRSLRSDDTAVYYCARENYYGSGSYRGGMDVWGQGTTVTVSS
VL: EIVLTQSPATLSLSPGERATLSCRASQSVSSYLAWYQQKPGQAPRLLIYDASNRATGIPARFSGSGSGTDFTLTISSLEPEDFAVYYCQQRSNWPWTFGQGTKVEIKR
notes: Expressed as IgG1; also called 1D1 1.28-hIgG1-3m
B2: 1D1 1.32 (antibody, human IgG1, kappa, V domains shown)
VH: B1 VH with N57G, K58T, S106A, V113A
VL: B1 VL
notes: Expressed as IgG1
B3: 1D1 1.30 (antibody, human IgG1, kappa, V domains shown)
VH: B1 VH with N57V, K58T
VL: B1 VL
notes: Expressed as IgG1; also called 1D1 1.30-hIgG1-3m
B4: 1D1 1.33 (antibody, human IgG1, kappa, V domains shown)
VH: B1 VH with N57V, K58T, S106A, V113A
VL: B1 VL
notes: Expressed as IgG1; also called 1D1 1.33-hIgG1-3m
B5: 1D1 1.29 (antibody, human IgG1, kappa, V domains shown)
VH: B1 VH with N57G, K58T
VL: B1 VL
notes: Expressed as IgG1
B6: 1D1 1.34 (antibody, human IgG1, kappa, V domains shown)
VH: B1 VH with N57K, K58T, L64H, S106A, V113A
VL: B1 VL
notes: Expressed as IgG1
B7: 1D1 Fab (Fab, V domains shown)
VH: B1 VH with D28S, K58T, H59N
VL: B1 VL
notes: Made from 1D1 IgG by papain; also called Fab of 1D1
B8: 1D1 D18 (antibody, V domains shown)
VH: B1 VH with D28S, K58T
VL: B1 VL
notes: IgG with triple mutant Fc as for 1D1 D37
B9: 1D1 D31 (antibody, V domains shown)
VH: B1 VH with D28S
VL: B1 VL
notes: as for B8
B10: 1D1 D21 (antibody, V domains shown)
VH: B1 VH with D28S, N57K, K58T
VL: B1 VL
notes: as for B8
B11: 1D1 DH10 (antibody, V domains shown)
VH: B1 VH with D28S, K58T, H59N, S106A
VL: B1 VL
notes: as for B8
B12: 1D1 D29 (antibody, V domains shown)
VH: B1 VH with D28S, T53S, K58T
VL: B1 VL
notes: as for B8
B13: 1D1 DH8 (antibody, V domains shown)
VH: B1 VH with D28S, T53A, K58T
VL: B1 VL
notes: as for B8
B14: 1D1 D28 (antibody, V domains shown)
VH: B1 VH with D28S, N57K, K58T, L64H
VL: B1 VL
notes: as for B8
B15: 1D1 D25 (antibody, V domains shown)
VH: B1 VH with D28S, N57A, K58T
VL: B1 VL
notes: as for B8
B16: 1D1 D5 (antibody, V domains shown)
VH: B1 VH with D28S, K58T, H59N, S106A, Y107F, V113G
VL: B1 VL
notes: as for B8
B17: 1D1 DH9 (antibody, V domains shown)
VH: B1 VH with D28S, T53P, N57K, K58T
VL: B1 VL
notes: as for B8

One experiment deals with T1, recombinant soluble murine TL1A. Nature of the experiment: SPR, IgG captured on anti-hIgG, TL1A injected.
Description: (§1) The antibodies were captured via directly immobilized anti-human IgG (GE Healthcare) onto a carboxymethylated dextran sensor chip surface (CM5) using a Biacore T100 or T200 instrument. Anti-human IgG was immobilized through amine coupling to densities of approximately 4,000-13,000 response units (RU). […] At the end of each cycle, the entire anti-hIgG surface was regenerated by a 30-second pulse of 3M MgCl₂ followed by two consecutive 15-second pulses of PBS-NET. […] All injections were performed at 25° C. at a collection rate of 10 Hz. All sensorgrams were double referenced by using both a control surface and buffer injections. Rate constants were determined by fitting the data to a 1:1 model in Biacore T100, T200 evaluation software v1.0, or BIAevaluation software v4.1.1 and the equation KD=Kd/kₐ.
(§2) At the highest cytokine concentrations, the dissociation phase was sometimes extended to 60 minutes to achieve at least a 5% decrease in binding signal.
In general, Kd refers to the concentration at which binding is half-saturated. The term koff denotes a measure of how fast the partners let go of each other. In general, kon refers to the rate constant with which the complex forms. In the case of B1, the Kd is about 1.53 nM, the koff was found to be 0.00032 s⁻¹, the kon was 210000 M⁻¹ s⁻¹ and the t1/2 amounted to 36.1 min.

With B2, the Kd was 0.906 nM, the koff was determined as 0.00023 s⁻¹, the kon was 260000 M⁻¹ s⁻¹ and the t1/2 came out at 49.5 min.

On to B3, for which the Kd was found to be 5.25 nM, the koff was 0.0007 s⁻¹, the association rate constant (kon) was 140000 M⁻¹ s⁻¹ and the t1/2 worked out at 17.9 min.

Consider B4, for which the dissociation constant Kd was determined as 1.91 nM, the koff was 0.00029 s⁻¹, the kon came to 160000 M⁻¹ s⁻¹ and the t1/2 came out at 39 min.

For the molecule B5, the Kd came out at 2.86 nM, the koff was 0.0007 s⁻¹, the kon was 260000 M⁻¹ s⁻¹ and the t1/2 was 15.8 min.

Turning to B6, the Kd worked out at 1.11 nM, the koff worked out at 0.00028 s⁻¹, the kon was found to be 250000 M⁻¹ s⁻¹ and the t1/2 is 41.8 min.

The next experiment addresses T2, recombinant soluble cynomolgus monkey …. Nature of the experiment: SPR, IgG captured on anti-hIgG, TL1A injected. A general note: In SPR one partner is held on a chip, and binding of the other changes the refractive index at the surface.
Description: as §1, §2
Take B1: the dissociation constant (Kd) was 0.144 nM, the off-rate constant (koff) is 5.4e-05 s⁻¹, the kon is 380000 M⁻¹ s⁻¹ and the t1/2 was 215 min.

On to B2, for which the equilibrium dissociation constant (Kd) came out at 0.066 nM, the koff amounted to 2.9e-05 s⁻¹, the kon worked out at 460000 M⁻¹ s⁻¹ and the t1/2 came to 398 min.

Regarding B3, the Kd was determined as 0.142 nM, the koff came out at 6e-05 s⁻¹, the kon amounted to 410000 M⁻¹ s⁻¹ and the t1/2 came to 199 min.

For the molecule B4, the Kd stood at 0.107 nM, the koff is 3.7e-05 s⁻¹, the on-rate (kon) was 360000 M⁻¹ s⁻¹ and the t1/2 is 309 min.

Turning to B5, the Kd worked out at 0.092 nM, the koff turned out to be 4.5e-05 s⁻¹, the kon turned out to be 490000 M⁻¹ s⁻¹ and the t1/2 is 259 min.

As to B6, the Kd is 0.083 nM, the koff was found to be 3.6e-05 s⁻¹, the on-rate constant (kon) stood at 440000 M⁻¹ s⁻¹ and the t1/2 was 323 min.

The next experiment deals with T3, recombinant soluble human TL1A. The experiment can be described thus: cell-based or functional assay.
As for B1, the “Caspase Assay, average IC50” value was found to be 0.0962 nM and the “NFkB Assay, average IC50” value stood at 0.189 nM.

On to B2, for which the “Caspase Assay, average IC50” value came out at 0.0615 nM and the “NFkB Assay, average IC50” value is 0.18 nM.

Consider B3, for which the “Caspase Assay, average IC50” value was found to be 0.103 nM and the “NFkB Assay, average IC50” value was 0.37 nM.

Turning to B4, the “Caspase Assay, average IC50” value worked out at 0.146 nM and the “NFkB Assay, average IC50” value is 0.2 nM.

With B5, the “Caspase Assay, average IC50” value was 0.085 nM and the “NFkB Assay, average IC50” value is 0.281 nM.

Take B6: the “Caspase Assay, average IC50” value came to 0.0627 nM and the “NFkB Assay, average IC50” value was found to be 0.182 nM.

A further experiment has the same target. The experiment can be described thus: SPR, IgG captured on anti-hIgG, TL1A injected; off rate too slow to measure.
Take B1: the Kd is under 0.1 nM.

Take B2: the Kd is under 0.1 nM.

Consider B3, for which the Kd is under 0.1 nM.

As to B4, the Kd is under 0.1 nM.

In the case of B5, the Kd was under 0.1 nM.

In the case of B6, the Kd is under 0.1 nM.

The next experiment has the same target. Nature of the experiment: KinExA, equilibrium in solution. On the technique in general: In KinExA the mixture passes briefly over coated beads that capture the unbound partner.
Protocol: This assay involves pre-incubating antibody: antigen mixtures in solution long enough to reach equilibrium before measuring the level of unbound antibody using a solid phase component. […] Beads were blocked for 1 hour with PBS plus 10 mg/ml bovine serum albumin (bovine serum albumin, Sigma) at room temperature before being diluted up to a total of 27 ml in PBS. […] For each titration series, a buffer sample and a sample of antibody alone were included. Each antibody: TL1A mixture was tumbled at room temperature for at least six hours to reach equilibrium and then each mixture was injected over the solid phase of TL1A-coated beads in the instrument flow cell. […] Beads were replenished between each sample. Binding signals of detected free antibody were converted to percentage of free, unbound antibody as measured by the antibody only sample and plotted versus each concentration of TL1A. For each antibody, the KD and ABC controlled curves were fit simultaneously using n-Curve Analysis software v3.1.4 to fit the curves to the ‘affinity, unknown ligand’ model and measure an equilibrium KD.
Solution-based kinetic exclusion assays (KinExA) were carried out as an orthogonal technique to measure equilibrium KD values.
With B1, the Kd was 0.00252 nM.

B7: the Kd amounted to 3 nM.

For the molecule B2, the dissociation constant Kd amounted to 0.00615 nM.

Turning to B3, the Kd came out at 0.0068 nM.

For B4, the Kd worked out at 0.0106 nM.

For B5, the Kd was 0.0194 nM.

As for B6, the Kd was found to be 0.00116 nM.

A further experiment deals with T4, recombinant soluble rat TL1A. Nature of the experiment: SPR, IgG captured on anti-hIgG, TL1A injected.
Description: as §1, §2
Take B2: the Kd stood at 5.02 nM, the koff turned out to be 0.0029 s⁻¹, the kon came to 580000 M⁻¹ s⁻¹ and the t1/2 worked out at 3.95 min.

On to B3, for which the Kd was determined as 41.9 nM, the koff is 0.0098 s⁻¹, the kon is 240000 M⁻¹ s⁻¹ and the t1/2 was 1.18 min.

Regarding B6, the dissociation constant (Kd) was determined as 5.92 nM, the off-rate (koff) stood at 0.0024 s⁻¹, the kon was 410000 M⁻¹ s⁻¹ and the t1/2 was 4.77 min.

The next experiment deals with T3, recombinant soluble human TL1A. Nature of the experiment: SPR, IgG captured on anti-hIgG, TL1A injected.
Protocol: Biacore analysis was performed using T-200 biosensor, series S CM5 chips and approximately 4000 RU (response units) of an anti-human IgG (GE Healthcare), immobilized in 10 mM sodium acetate immobilization buffer at pH 5.0. Assay conditions were established to minimize the influence of mass transfer, avidity, and rebinding events, as described below. A blank immobilization was carried out on a separate flow cell for reference subtraction. The purified IgGs were diluted in running buffer (PBS, 300 mM sodium chloride, 3.2 mM ethylenediaminetetraacetic acid, 0.01% Tween20) and low levels (<30 RU) captured using a flow rate of 100 μl/min for 2 min, to reduce possible rebinding by the trimeric TL1A. […] Reference-subtracted sensorgrams for each concentration were analyzed using Biacore T-200 evaluation software (v1.0).
In the case of B8, the dissociation constant (Kd) worked out at 0.662 nM, the koff is 0.000473 s⁻¹ and the kon came to 717000 M⁻¹ s⁻¹.

Regarding B9, the Kd amounted to 0.518 nM, the off-rate (koff) amounted to 0.00042 s⁻¹ and the kon was determined as 822000 M⁻¹ s⁻¹.

Consider B10, for which the Kd was determined as 0.709 nM, the off-rate (koff) was 0.00052 s⁻¹ and the on-rate constant (kon) was determined as 745000 M⁻¹ s⁻¹.

Take B11: the Kd was 0.589 nM, the koff came out at 0.0005 s⁻¹ and the kon turned out to be 853000 M⁻¹ s⁻¹.

On to B12, for which the Kd worked out at 0.705 nM, the off-rate constant (koff) worked out at 0.000712 s⁻¹ and the kon stood at 1.01e+06 M⁻¹ s⁻¹.

On to B13, for which the Kd worked out at 0.924 nM, the off-rate (koff) is 0.000896 s⁻¹ and the association rate constant (kon) was 977000 M⁻¹ s⁻¹.

With B14, the dissociation constant (Kd) was determined as 0.527 nM, the koff came out at 0.000568 s⁻¹ and the kon was determined as 1.09e+06 M⁻¹ s⁻¹.

On to B15, for which the Kd stood at 0.453 nM, the off-rate constant (koff) was 0.000387 s⁻¹ and the kon is 868000 M⁻¹ s⁻¹.

For B16, the Kd came to 0.625 nM, the koff came to 0.000478 s⁻¹ and the kon was 776000 M⁻¹ s⁻¹.

As to B17, the Kd came out at 0.84 nM, the koff was 0.000866 s⁻¹ and the kon came to 1.04e+06 M⁻¹ s⁻¹.
